Experimental data as given in patent US20100303814A1 (VIVENTIA BIOTECHNOLOGIES, published 2010).
Where no end group is shown, it is not given here. The star is where a group is joined. Biotin = O=C1N[C@H]2[C@H](CS[C@H]2CCCCC(=O)*)N1

Assays:
[1] = biological target: T1, PSPep1 (Biotin TARIRAVGLLTVISK) (human); test: ELISA on peptide-coated plate
T1 construct: Synthetic peptide, part of the immunogen of the commercial anti-PSCA antibodies, 1823.9 amu
T1 peptide: Biotin-TARIRAVGLLTVISK
Method: (§1) Peptide solutions were diluted 1-in-100 with Hank's buffered saline solution (HBSS) containing 0.5% formaldehyde. 100 μL of diluted peptide solution was distributed to each well in a 96-well plate. The plates were incubated at room temperature for 1 hour. The supernatant was removed and the plates were placed uncovered in a 37° C. incubator for 16-18 hours. The peptide-coated plates were placed in plastic bags and stored at 2-8° C. until required.
(§2) The plates were washed as previously described with the wash buffer (PBS containing 0.5% Tween 20). The plates were incubated with 1:6000 dilution of anti-human IgG-HRP for one hour at room temperature. The plates were washed as previously described. 100 μL of TMB substrate (TMB peroxidase substrate KPL cat# 50-76-00) was added to each well and incubated for 5-10 minutes in the dark. The reaction was terminated by adding 100 μL of 1M phosphoric acid to each well. The optical density was measured at 450 nm using an ELISA plate reader.

[2] = biological target: T2, PSPep3 (Biotin LCNASGAHALQ), negative peptide (human); test: ELISA on peptide-coated plate
T2 construct: Synthetic peptide derived from PSCA, 1306.59 amu; also called PSPep3 (Negative)
T2 peptide: Biotin-LCNASGAHALQ
Method: as §1, §2

[3] = biological target: T3, antigen bound by VB1-213 on A-375 tumor cells; test: flow cytometry saturation curve on A-375 cells, Lineweaver-Burk method
T3 construct: Placeholder target for the KD measured on whole A-375 cells; also called A-375 carcinoma cells
Method: Flow cytometry was used to assess binding affinity (C. A. Benedict, A. J. MacKrell, W. F. Anderson, J. Immunol. Methods 201, 223 (1997)). A range of antibody concentrations were tested against a fixed number of tumor cells (A-375) for 2 hours to obtain a saturation curve. Values and graphical analysis were generated using Sigma Plot (Jandel Scientific, San Rafael, Calif.). The inverse of the determined median fluorescence was plotted as a function of the inverse of antibody concentration to determine KD by the Lineweaver-Burk method.

[4] = biological target: T4, prostate stem cell antigen (PSCA) (human, UniProt O43653 12-83); test: immunoprecipitation with VB1-213, in-solution digest, mass spectrometry
T4 sequence: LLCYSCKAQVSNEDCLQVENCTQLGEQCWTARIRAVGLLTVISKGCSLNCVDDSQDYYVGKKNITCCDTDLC
Method: A pre-clearing step using protein-G sepharose alone was the first step in the purification of the antigen prior to the addition of the antibody. In certain cases, pre-clearing was performed twice to add more stringency to the assay. A total of 50 μg of antibody was used as the precipitating agent in the mixture. The antigen-antibody mixtures were nutated overnight at 4° C. using buffer conditions that mimicked physiological conditions. Care was taken to ensure that protease inhibitors were used in every step of the antigen isolation process.
The extracted peptides were concentrated and desalted using μ-C18 columns and used for MS analysis. Two distinct proteins were identified, in all three cell lines, as “Mixture1”, consisting of HnRNPG+Prostate stem cell antigen (PSCA). HnRNPG and PSCA were identified as a “Mixture1”, each with 76% and 95% sequence coverage and a highly significant combined score of 413. The sequence coverage and peptides corresponding to PSCA are shown in FIGS. 18 and 19 and Table 7 (SEQ ID NO: 18 to 22). The peptides isolated by this method corresponding to HnRNPG as shown in Table 8 (SEQ ID NO: 72 to 110).

B1: VB1-213 monoclonal antibody (antibody, human IgG1, V domains shown)
VH: EVQLLESGGGLVQPGGSLRLSCAASGFTFRSYAMSWVRQAPGKGLEWVSTISGRGVTTYYADSVKGRFTISRDNSKNTLYLQMNSLRADDTALYYCAKDRTRYYGMDVWGQGTTVTVSS
VL: SYELTQPPSVSVSPGQTASITCSGNKLGDKYACWYQQKSGQSPVLVIYQDSKRPSGIPERFSGSNSGNTATLTISGTQALDEADYYCQAWDNSTAVFGGGTKLTVLG
notes: Human IgG1, lambda monoclonal antibody from a hybridoma (lymph node cells of an ovarian cancer patient fused with MFP-2); no constant regions for the IgG as tested
With B1 the binding result [1] was “no binding”, the binding result [2] was “no binding” and the Kd [3] was 627 nM. B1: binds [4].
